Consider 1 molecule from patent publication US20210063414A1, “METHODS FOR PREVENTING AND/OR TREATING BONE LOSS CONDITIONS BY MODULATING IRISIN” (Dana-Farber Cancer Institute, Inc., priority 2018, published 2021).

The target of experiment [1] is T1, MLO-Y4 cell surface proteins (Mus musculus, UniProt Q921N7).
T1 construct: endogenous in cells; host or cells: MLO-Y4
T1 sequence (Q921N7 78-253): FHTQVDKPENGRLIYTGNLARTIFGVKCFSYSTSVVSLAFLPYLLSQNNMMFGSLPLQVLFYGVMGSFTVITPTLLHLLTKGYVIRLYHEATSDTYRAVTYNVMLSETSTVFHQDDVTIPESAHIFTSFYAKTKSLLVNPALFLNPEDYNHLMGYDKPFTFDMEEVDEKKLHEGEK
The experiment is described as follows: Crosslinking/co-immunoprecipitation/mass spectrometry (TMT quantitative proteomics) to identify irisin receptors. Format: binding. Particulars: co-precipitated protein Tmem70 (TMM70_MOUSE). In outline: (§1)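 Mouse MLO-Y4 cells were switched to serum-free FreeStyle medium for 4 h, chilled, then exposed to 10 nM His-tagged irisin (or adipsin as control) for 20 min. Cells were crosslinked with 1.5 mM DTSSP (30 min, ice), and bound proteins were pulled down on Ni-NTA and eluted with 250 mM imidazole. Eluates were separated by SDS-PAGE, trypsin-digested in gel, TMT 6-plex labelled and quantified by MS3-based LC-MS/MS on an Orbitrap Fusion Lumos.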

The target of experiment [2] is T2, MLO-Y4 cell surface proteins (Mus musculus, UniProt P48997).
T2 construct: endogenous in cells; host or cells: MLO-Y4
T2 sequence (P48997 1-467): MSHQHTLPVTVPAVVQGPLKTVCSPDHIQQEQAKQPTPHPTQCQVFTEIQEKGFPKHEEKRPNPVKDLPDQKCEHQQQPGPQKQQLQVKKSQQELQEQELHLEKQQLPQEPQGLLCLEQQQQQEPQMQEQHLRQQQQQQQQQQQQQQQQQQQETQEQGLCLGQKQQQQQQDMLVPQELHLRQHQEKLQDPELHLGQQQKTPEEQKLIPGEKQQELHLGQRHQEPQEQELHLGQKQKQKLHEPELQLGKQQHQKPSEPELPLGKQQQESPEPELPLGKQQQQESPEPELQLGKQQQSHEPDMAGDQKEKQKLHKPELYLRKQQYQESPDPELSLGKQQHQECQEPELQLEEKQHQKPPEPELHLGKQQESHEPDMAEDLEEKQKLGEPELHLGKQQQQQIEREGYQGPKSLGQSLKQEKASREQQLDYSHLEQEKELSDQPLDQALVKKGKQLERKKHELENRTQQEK
The experiment is described as above. Format: binding. To be noted: co-precipitated protein Ivl (INVO_MOUSE). In outline: as §1

B1: irisin: secreted cleaved form of FNDC5; recombinant human/mouse irisin with C-terminal his tag produced in HEK293 cells (protein)
chain: DSPSAPVNVTVRHLKANSAVVSWDVLEDEVVIGFAISQQKKDVRMLRFIQEVNTTTRSCALWDLEEDTEYIVHVQAISIQGQSPASEPVLFKTPREAEKMASKNKDEVTMKE
modifications: left off: small tags and cut ends
notes: secreted cleaved form of FNDC5; recombinant human/mouse irisin with C-terminal his tag produced in HEK293 cells
For B1, the TMT signal-to-noise ratio in experiment [1] stood at 49.6598; in experiment [2], 13.3857. Moreover, the “irisin/adipsin TMT signal-to-noise ratio” value in experiment [1] amounted to 0.562; in experiment [2] it was 0.060.
